Measured values: patent US20240262884A1 (University of Pennsylvania, published 2024)

T1: human GFRα1 (R&D Systems, Fc-fusion protein) (human, UniProt P56159 25-429, limits assumed)
T1 construct: not shown: Fc part of the bought fusion protein
T1 sequence (looked up): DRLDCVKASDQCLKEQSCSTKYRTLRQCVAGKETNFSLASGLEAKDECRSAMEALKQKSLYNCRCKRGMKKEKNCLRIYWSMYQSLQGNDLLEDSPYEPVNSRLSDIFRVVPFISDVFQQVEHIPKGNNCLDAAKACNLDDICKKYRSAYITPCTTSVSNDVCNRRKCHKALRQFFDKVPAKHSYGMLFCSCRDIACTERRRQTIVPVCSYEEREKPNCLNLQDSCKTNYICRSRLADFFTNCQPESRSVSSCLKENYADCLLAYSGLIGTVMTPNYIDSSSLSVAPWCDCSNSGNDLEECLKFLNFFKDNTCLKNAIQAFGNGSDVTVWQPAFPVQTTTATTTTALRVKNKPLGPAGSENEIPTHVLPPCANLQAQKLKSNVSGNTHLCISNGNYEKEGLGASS

T2: human GFRα2 (R&D Systems, Fc-fusion protein) (human, UniProt O00451 22-441, limits assumed)
T2 construct: not shown: Fc part of the bought fusion protein
T2 sequence (looked up): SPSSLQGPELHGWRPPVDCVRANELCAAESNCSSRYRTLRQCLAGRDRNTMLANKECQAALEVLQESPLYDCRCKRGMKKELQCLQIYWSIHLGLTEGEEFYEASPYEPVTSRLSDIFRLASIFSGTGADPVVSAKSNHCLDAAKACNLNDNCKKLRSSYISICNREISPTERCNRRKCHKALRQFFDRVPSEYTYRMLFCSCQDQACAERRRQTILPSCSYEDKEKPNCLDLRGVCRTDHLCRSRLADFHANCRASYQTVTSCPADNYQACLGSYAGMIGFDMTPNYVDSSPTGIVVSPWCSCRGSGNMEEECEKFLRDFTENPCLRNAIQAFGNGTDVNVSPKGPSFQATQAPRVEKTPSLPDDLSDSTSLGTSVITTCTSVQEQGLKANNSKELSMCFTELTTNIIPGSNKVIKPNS

T3: human GFRα3 (R&D Systems, Fc-fusion protein) (human, UniProt O60609 32-382, limits assumed)
T3 construct: not shown: Fc part of the bought fusion protein
T3 sequence (looked up): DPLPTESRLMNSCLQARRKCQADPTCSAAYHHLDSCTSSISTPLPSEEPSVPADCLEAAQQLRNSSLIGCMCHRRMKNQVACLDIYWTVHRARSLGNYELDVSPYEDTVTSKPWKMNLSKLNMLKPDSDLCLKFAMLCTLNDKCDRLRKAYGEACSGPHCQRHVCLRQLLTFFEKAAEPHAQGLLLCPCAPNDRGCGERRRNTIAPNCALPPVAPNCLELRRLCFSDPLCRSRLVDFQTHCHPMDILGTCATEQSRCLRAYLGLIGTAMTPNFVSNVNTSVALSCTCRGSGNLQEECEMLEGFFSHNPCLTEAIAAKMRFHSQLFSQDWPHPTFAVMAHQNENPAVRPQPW

T4: GFRα4 isoform a human Fc bivalent fusion protein (Asn24-Ser245, Factor Xa site, human IgG1 Fc fragment, … (human))
T4 construct: also called GFRα4a; GFRalpha4 isoform a
T4 chain: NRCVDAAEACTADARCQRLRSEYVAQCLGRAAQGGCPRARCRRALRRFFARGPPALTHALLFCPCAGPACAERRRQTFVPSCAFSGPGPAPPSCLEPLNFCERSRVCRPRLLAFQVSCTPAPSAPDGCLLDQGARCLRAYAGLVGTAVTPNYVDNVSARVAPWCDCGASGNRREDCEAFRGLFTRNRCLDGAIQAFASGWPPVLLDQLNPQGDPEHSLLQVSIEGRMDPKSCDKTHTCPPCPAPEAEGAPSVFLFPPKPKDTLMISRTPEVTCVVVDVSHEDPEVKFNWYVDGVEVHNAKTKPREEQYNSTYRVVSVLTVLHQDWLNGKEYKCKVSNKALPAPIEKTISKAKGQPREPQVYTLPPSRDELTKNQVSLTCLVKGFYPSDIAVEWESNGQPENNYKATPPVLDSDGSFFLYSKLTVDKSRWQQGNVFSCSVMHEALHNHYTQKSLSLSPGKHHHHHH

B1: P4-6 recombinant human/rabbit chimeric Fab (Fab, V domains shown)
VH: EQLKESGGGLFKPTDTLTLTCTVSGFSLSYYGVNWVRQAPGNGLEWIGTIGGSGDTYYASWAKSRSTIIRNTNENTVTLKMTSLTAADTATYFCVRYANIGYEYFNVWGPGTLVTVSS
VL: QFVLTQSPSASAALGASAKLTCTLSSAHKTYTIDWYQQQKGKAPRYLIQVKSDGTYTKATGVPDRFSGSSSGADRYLIIPSVQADDEADYYCGTDYTGGYVFGGGTQLTVT
notes: Both formats are written under this one molecule; also called Fab P4-6; P4-6 phage antibody
B2: P4-10 recombinant human/rabbit chimeric Fab (Fab, V domains shown)
VH: QSVKESEGGLFKPTDTLTLTCTVSGFSLSRHALTWVRQAPGNGLEWIGAIDNAGTTYYASWAKSRSTITRNTDLHTVTLKMTSLTASDTATYFCARVFYDINSGYYLDGMDLWGPGTLVTVSS
VL: QFVLTQSPSVSAALGASAKLTCTLSSAHKTYTIDWYQQQQGEAPRYLMQVKSDGSYTKGTGVPDRFSGSSSGADRYLIIPSVQADDEAGYVCGADDNGGYVFGGGTQLTVT
notes: Both formats are written under this one molecule; also called Fab P4-10; P4-10 phage antibody

Columns and labels:
[1] = target: T1, human GFRα1 (R&D Systems, Fc-fusion …); assay: ELISA with soluble Fab, HRP-anti human Fab detection (FIG. 3)
[2] = target: T2, human GFRα2 (R&D Systems, Fc-fusion …); assay: as above
[3] = target: T3, human GFRα3 (R&D Systems, Fc-fusion …); assay: as above
[4] = target: T4, GFRα4 isoform a human Fc bivalent …; assay: ELISA, soluble recombinant human/rabbit chimeric Fab, HRP-anti human Fab detection (FIG. 3)
[5] = target: T5, GFRα4 isoform b human Fc bivalent fusion protein (Asn24-Val274, TEV site and linker, human IgG1 Fc fragment); … (human); assay: as above
T5 construct: also called GFRα4b; GFRalpha4 isoform b

Binder	binding result [1]	binding result [2]	binding result [3]	binding result [4]	binding result [5]
B1	no binding	no binding	no binding	binds	binds
B2	no binding	no binding	no binding	binds	binds
